Data set [1] has as its target MinD (Escherichia coli) (UniProt P0AEZ3). Nature of the data set: mass-sensitive particle tracking (MSPT, iSCAT) on a supported lipid bilayer; MinD or MinD D40A alone, 50-200 nM, 0.5 mM ATP, Min buffer, SLB of 70 mol% DOPC / 30 mol% DOPG, room temperature (23 ± 2 °C); particle densities 0.03-0.8 µm^-2; monomers (33 kDa) not quantitatively detectable.
The target is the same in data set [2]. The data set is described as above. The source holds these as a separate data set.
Data set [3] concerns the molecule itself. The description is as above.
Data set [4] deals with the molecule itself. Nature of the data set: mass-sensitive particle tracking (MSPT, iSCAT) on a supported lipid bilayer; co-reconstitution of equimolar MinD and MinE, 50-200 nM each, 0.5 mM ATP, Min buffer, SLB of 70 mol% DOPC / 30 mol% DOPG, room temperature; particle densities 0.1-0.8 µm^-2.

Values joined by “and” are separate entries in the source; they are usually repeats but may differ in a detail not shown here. Equal values may be shown once. Read-outs that look alike come from different tables or passages of the source.

As for “MinD (from UniProt P0AEZ3 1-270) (natural protein)”, the stoichiometry N (usually a count of units in the complex or per binding partner) in data set [1] is 3 and 4; in data set [2], 2.

B1: MinD D40A (natural protein, Escherichia coli, UniProt P0AEZ3 1-270, looked up)
chain: MARIIVVTSGKGGVGKTTSSAAIATGLAQKGKKTVVIDFAIGLRNLDLIMGCERRVVYDFVNVIQGDATLNQALIKDKRTENLYILPASQTRDKDALTREGVAKVLDDLKAMDFEFIVCDSPAGIETGALMALYFADEAIITTNPEVSSVRDSDRILGILASKSRRAENGEEPIKEHLLLTRYNPGRVSRGDMLSMEDVLEILRIKLVGVIPEDQSVLRASNQGEPVILDINADAGKAYADTVERLLGEERPFRFIEEEKKGFLKRLFGG
notes: ATPase MinD of the Escherichia coli Min system with D40A (impaired ATP hydrolysis); A purification tag is probably present (surmise); also called D40A mutant; MinD mutant (D40A)
With B1, the “stoichiometry N” value in data set [3] was 2 and 4.

B2: MinE (natural protein, Escherichia coli, UniProt P0A734 1-88, looked up)
chain: MALLDFFLSRKKNTANIAKERLQIIVAERRRSDAEPHYLPQLRKDILEVICKYVQIDPEMVTVQLEQKDGDISILELNVTLPEAEELK
notes: MinE of the Escherichia coli Min system; A purification tag is probably present (surmise)
On to B2, for which the binding result in data set [4] was “binds”.

The values are drawn from paper PMC8490154, “Mass-sensitive particle tracking to elucidate the membrane-associated MinDE reaction cycle” (Nature Methods, 2021).
